The subject of this series is MS2 coat protein. Nature of the series: apparent KD of MS2 coat protein; designed switch direction (-1 OFF switch, 1 ON switch): -1; higher = weaker reporter binding. In short, it runs like this: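 Three titration conditions were used: no input, 200 uM small-molecule ligand, and an oligonucleotide input. In each, SNAP-549-labelled MS2 coat protein was raised from 0.7 or 1.5 nM, doubling, to 3 µM over designed RNA switches transcribed on Illumina chips by stalled E. coli RNA polymerase. Curve fits of normalised cluster fluorescence gave values whose per-design median over clusters is the apparent KD.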

Where [1] appears, read: input ligand: microRNA oligo, concentration not stated.
Where [2] appears, read: Eterna round: R95, input ligand: microRNA oligo, concentration not stated.
The mark [3] stands for this setting: Eterna round: R95, input ligand: FMN 200 uM.
Where [4] appears, read: Eterna round: R95, input ligand: none.

Here are results for 30 sequences from the supplement of paper PMC9170038.

As for “AAGGGUGCUUUCGGAACGACAUGAGGAUCACCCAUGUAGACUGAGGAUAUCUACUUCUAAGGACGGGAGAAGGCAGUGUAAUGC [Ex NG3 #69] (Eterna round: R96, puzzle: Exclusion NG 3)”, the “apparent KD of MS2 coat protein” value (input ligand: FMN 200 uM) was determined as 47.8 nM, the “apparent KD of MS2 coat protein” value under setting [1] stood at 28.3 nM and the “apparent KD of MS2 coat protein” value (input ligand: none) came out at 42.6 nM.

As to “AAGGUCAAGAAUGGAAAUUAAAUACAUGAGGAUCACCCAUGUCAGGAUAUCCAGUAGAGACCUAGGGAGAAGGGACAUGAAAAG [Esonanza] (Eterna round: R96, puzzle: Exclusion NG 3)”, the “apparent KD of MS2 coat protein” value (input ligand: FMN 200 uM) worked out at 16.1 nM, the “apparent KD of MS2 coat protein” value under setting [1] amounted to 10.3 nM and the “apparent KD of MS2 coat protein” value (input ligand: none) amounted to 14.7 nM.

As for “AAGGUGUUAGGAUAUCGGAGUUUGAGGCAGACGGGAAUUUUCGAGAAGGAACAUGAGGAUCACCCAUGUAGUAU [JR_Exclu4_Sub039] (puzzle: Exclusion 4)”, the “apparent KD of MS2 coat protein” value under setting [2] amounted to 21.6 nM.

“AAGUACCGUCACGAAAGUGAUGGUACAACAAGCAAAUGUACAUGAGGAUCACCCAUGUCCUCGAUUGCUCGUCUUAU [Sensor 3 - 61] (puzzle: Sensor v3, turn-off variant 2)”: the “apparent KD of MS2 coat protein” value amounted to 77.2 nM under setting [3], 114 nM under setting [2] and 93.6 nM under setting [4].

As for “AAGUACCGUCACGAAAGUGAUGGUACAACAAGCAUGUAAACAUGAGGAUCACCCAUGUCCUCAAAUGCUCGUCUUAU [Sensor 3 - 62] (puzzle: Sensor v3, turn-off variant 2)”, the “apparent KD of MS2 coat protein” value runs as follows: under setting [3], 732 nM; under setting [2], 2020 nM; under setting [4], 776 nM.

On to “AAGUACCGUCACGAAAGUGAUGGUACAGCAAGCAAAUGUACAUGAGGAUCACCCAUGUCCUCAAUUGCUCGUCUUAU [Sensor 3 - 58] (puzzle: Sensor v3, turn-off variant 2)”, for which the “apparent KD of MS2 coat protein” value is, setting by setting: under setting [3], 81.7 nM; under setting [2], 181 nM; under setting [4], 87.4 nM.

Consider “AAGUACCGUCACGAUAGUGAUGGUACAACAAGCAGUGAAACAUGAGGAUCACCCAUGUCCUCAGUUGCUCGUCUUAU [Sensor 3 - 79] (puzzle: Sensor v3, turn-off variant 2)”, for which the “apparent KD of MS2 coat protein” value is 196 nM under setting [3], 492 nM under setting [2] and 195 nM under setting [4].

Take “AAGUACCGUCACGAUAGUGAUGGUACAACAAGCAUGUAAACAUGAGGAUCACCCAUGUCCUCGAUUGCUCGUCUUAU [Sensor 3 - 67] (puzzle: Sensor v3, turn-off variant 2)”: the “apparent KD of MS2 coat protein” value under setting [3] worked out at 527 nM, the “apparent KD of MS2 coat protein” value under setting [2] is 601 nM and the “apparent KD of MS2 coat protein” value under setting [4] stood at 537 nM.

Consider “AAGUACCGUCACGAUAGUGAUGGUACAACAAGUAAAUGUACAUGAGGAUCACCCAUGUCCUCUUUUGCUCGUCUUAU [Sensor 3 - 91] (puzzle: Sensor v3, turn-off variant 2)”, for which the “apparent KD of MS2 coat protein” value under setting [3] came out at 144 nM, the “apparent KD of MS2 coat protein” value under setting [2] amounted to 33 nM and the “apparent KD of MS2 coat protein” value under setting [4] is 166 nM.

On to “AAGUACCGUCACGAUAGUGAUGGUACAACAAGUAAGUGAACAUGAGGAUCACCCAUGUCCUCUUUUGCUCGUCUUAU [Sensor 3 - 90] (puzzle: Sensor v3, turn-off variant 2)”, for which the “apparent KD of MS2 coat protein” value turned out to be 309 nM under setting [3], 18.4 nM under setting [2] and 334 nM under setting [4].

For “AAGUACCGUCACGAUAGUGAUGGUACAACAGGCAAAUGUACAUGAGGAUCACCCAUGUCCUCUUUUGCUCGUCUUAU [Sensor 3 - 99] (puzzle: Sensor v3, turn-off variant 2)”, the “apparent KD of MS2 coat protein” value amounted to 48.9 nM under setting [3], 31 nM under setting [2] and 54.7 nM under setting [4].

On to “AAGUACCGUCACGAUAGUGAUGGUACAACAGGUAGUGAAACAUGAGGAUCACCCAUGUCCUCAAUUGCUCGUCUUAU [Sensor 3 - 84] (puzzle: Sensor v3, turn-off variant 2)”, for which the “apparent KD of MS2 coat protein” value amounted to 773 nM under setting [3], 179 nM under setting [2] and 716 nM under setting [4].

For the sequence “AAGUACCGUCACGAUAGUGAUGGUACAACAUGUAGUGAAACAUGAGGAUCACCCAUGUCCUCAAUUGCUCGUCUUAU [Sensor 3 - 83] (puzzle: Sensor v3, turn-off variant 2)”, the “apparent KD of MS2 coat protein” value came out at 1400 nM under setting [3], 460 nM under setting [2] and 1260 nM under setting [4].

For the sequence “AAGUAGUGUGUGAGGAUAUUGGUGGAAUGACACAUUAAGAAGGCACAUGAGGAUCACCCAUGUGGGUAAACACG [Brourd's EX4 #22] (Eterna round: R97, puzzle: Brourd's mod of Exclusion 4)”, the “apparent KD of MS2 coat protein” value is, setting by setting: (input ligand: FMN 200 uM) 90 nM; (input ligand: none) 33.1 nM.

As for “AAGUAGUGUGUGAGGAUAUUGGUGGAAUGACACAUUAAGAAGGCACAUGAGGAUCACCCAUGUGGGUAGACACG [Brourd's EX4 #21] (Eterna round: R97, puzzle: Brourd's mod of Exclusion 4)”, the “apparent KD of MS2 coat protein” value is, setting by setting: (input ligand: FMN 200 uM) 335 nM; (input ligand: none) 27.8 nM.

With “AAGUAUAGAGGAUAUAGUAAGUACUACAUGAGGAUCACCCAUGUUCUUCAUUACGUAUUUCUAGAAGGCUGAUAAA [EX-5 Malc#25] (puzzle: Exclusion 5)”, under setting [2], the “apparent KD of MS2 coat protein” value is 369 nM.

As to “AAGUAUAGAGGAUAUAGUAGUUACAACAUGAGGAUCACCCAUGUUCUUCAUAGCGUAGAUCUAGAAGGCUGAUAAA [EX-5 Malc#30] (puzzle: Exclusion 5)”, the “apparent KD of MS2 coat protein” value under setting [3] came out at 265 nM, the “apparent KD of MS2 coat protein” value under setting [2] came to 110 nM and the “apparent KD of MS2 coat protein” value under setting [4] stood at 119 nM.

Turning to “AAGUAUAGAGGAUAUAGUGAGUACUACAUGAGGAUCACCCAUGUUCUUCAAAACGUAUUUCUAGAAGGCUGAUAAA [EX-5 Malc#21] (puzzle: Exclusion 5)”, the “apparent KD of MS2 coat protein” value is 110 nM under setting [3], 47.8 nM under setting [2] and 59.1 nM under setting [4].

With “AAGUAUAGAGGAUAUAGUGAGUACUACAUGAGGAUCACCCAUGUUCUUCAAAGCGUACUUCUAGAAGGCUGAUAAA [EX-5 Malc#16] (puzzle: Exclusion 5)”, the “apparent KD of MS2 coat protein” value under setting [3] was 381 nM, the “apparent KD of MS2 coat protein” value under setting [2] worked out at 251 nM and the “apparent KD of MS2 coat protein” value under setting [4] turned out to be 208 nM.

On to “AAGUAUAGAGGAUAUAGUGAGUACUACAUGAGGAUCACCCAUGUUCUUCACAGCGUAUUUCUAGAAGGCUGUUAAA [EX-5 Malc#19] (puzzle: Exclusion 5)”, for which the “apparent KD of MS2 coat protein” value under setting [3] came out at 29.6 nM, the “apparent KD of MS2 coat protein” value under setting [2] stood at 26.5 nM and the “apparent KD of MS2 coat protein” value under setting [4] amounted to 26.4 nM.

Take “AAGUCAUUAGGAUAUGAAUAGGGAGACAUGAGGAUCACCCAUGUUGAUAGAACGACAUGUUCAGAAGGAGUCGCUG [Eternabot (L1) Solution 45] (Eterna round: R97, puzzle: Exclusion 5)”: the “apparent KD of MS2 coat protein” value reads like this: (input ligand: FMN 200 uM) 33.7 nM; (input ligand: none) 33 nM.

As to “AAGUCGAGCGUGAGGAUAUCGUUCGAACGACCGAACGAGAAGGCACAUGAGGAUCACCCAUGUGAUUCAGCUCA [Brourd's EX4 #47] (Eterna round: R97, puzzle: Brourd's mod of Exclusion 4)”, the “apparent KD of MS2 coat protein” value came out at 93.6 nM (input ligand: FMN 200 uM) and 19.7 nM (input ligand: none).

Regarding “AAGUGUGCCUAGGAUAUGUUCGGCCAAGGUCAUACAGAAGGAGGCACAUGAGGAUCACCCAUGUAGUGUCCAAC [Orririvebe] (puzzle: Exclusion 6)”, under setting [2], the “apparent KD of MS2 coat protein” value came out at 88.1 nM.

On to “AAGUUGCGAGGAUAUCGUAAGAUGGACAUGAGGAUCACCCAUGUGGUGCUUUUUUAUUGGCGAGAAGGCGCAUAAA [Zaiseren] (puzzle: Exclusion 5)”, for which the “apparent KD of MS2 coat protein” value worked out at 134 nM under setting [3], 166 nM under setting [2] and 164 nM under setting [4].

Turning to “AAUAAAACAUAGGAUAUCGAAUUUAUCAUUUAACGAGAAGGAUGAACAUGAGGAUCACCCAUGUGGUAUCAUGG [Mat - Exclusion 6 - JL Mod - D7] (puzzle: Exclusion 6)”, the “apparent KD of MS2 coat protein” value worked out at 168 nM under setting [3], 244 nM under setting [2] and 216 nM under setting [4].

As to “AAUAAACAUGAGGAUCACCCAUGUGAGGAUAUCGAAAUAAAUAAUAAAAUAAAUAAAACGAGAAGGCACAAUAA [JMF most obvious solution 3] (puzzle: Exclusion 1)”, the “apparent KD of MS2 coat protein” value is 40.4 nM under setting [3], 46.2 nM under setting [2] and 47.5 nM under setting [4].

For “AAUAAACAUGAGGAUCACCCAUGUGAGGAUAUGCAAAUAAAUAAUAAAAUAAAUAAAAGCAGAAGGCACAAUAA [JMF most obvious solution 1] (puzzle: Exclusion 1)”, the “apparent KD of MS2 coat protein” value reads like this: under setting [3], 31.5 nM; under setting [2], 35 nM; under setting [4], 30.9 nM.

With “AAUAAACGAGGAUAUACUAAAAUAUGAAUAAAAUAAAUAAAACAUGAGGAUCACCCAUGUAGAAGGCGUAAUAA [JMF's Not so obvious solution 4] (puzzle: Exclusion 2)”, the “apparent KD of MS2 coat protein” value by setting is: under setting [3], 21.3 nM; under setting [2], 23.4 nM; under setting [4], 21.4 nM.

Turning to “AAUAAAGUAGGAUAUCGGCCAGCGAACAUGAGGAUCACCCAUGUGAUGCCGUGCCGACGCCGAGAAGGGCUUAAAA [Usceisma] (puzzle: Exclusion 5)”, the “apparent KD of MS2 coat protein” value is, setting by setting: under setting [3], 13.5 nM; under setting [2], 12 nM; under setting [4], 12.1 nM.

For the sequence “AAUAAAUAAGCAGGAUCCUACAUGAGGAUCACCCAUGUGCUCGUCUUAUAAAGUACUAUCACGAAAGUGAUAGUACA [Mat - Sensor v3 - turn-off var 1 - Eli Mod - D75] (puzzle: Sensor v3, turn-off variant 1)”, the “apparent KD of MS2 coat protein” value by setting is: under setting [3], 115 nM; under setting [2], 103 nM; under setting [4], 145 nM.
